The text below walks through data of patent US20160375155A1 (COLLAGEN MEDICAL, published 2016).

The labels stand for the following.
B1: Compound ID No. 4 (peptide)
peptide: KWHCYTKFPHHYCVY[Bip]-NH2
modifications: disulfide 4-13; not fully specified (residues 1, 7, N-terminus); printed as K-W-H-C-Y-T-K-F-P-H-H-Y-C-V-Y-Bip; also: GdDOTAGA on N-terminal amine or lysine epsilon amino groups
notes: Tested as the Gd(III)-DOTAGA chelate conjugate of the cyclic peptide; also called CMPD ID 4
B2: Compound ID No. 2 (peptide)
peptide: GdDOTAGA-K(GdDOTAGA)WHCTTK(GdDOTAGA)FPHHYCLY[Bip]-NH2
modifications: disulfide 4-13
notes: Tested as the Gd(III)-DOTAGA chelate conjugate of the cyclic peptide; also called CMPD ID 2
B3: Compound ID No. 1 (peptide)
peptide: GKWHCTTKFPHHYCLY
modifications: Bip (L-4,4'-biphenylalanine) at position 17; C-terminal amide (NH2); cyclized through Cysteine-Cysteine disulfide bond (Cys5-Cys14); GdDOTAGA coupled by amide bonds to the primary amines (N-terminal amine and lysine epsilon amino groups)
notes: Tested as the Gd(III)-DOTAGA chelate conjugate of the cyclic peptide; also called CMPD ID 1; Comp ID No. 1
B4: Compound ID No. 3 (peptide)
peptide: GdDOTAGA-K(GdDOTAGA)YWHCTTK(GdDOTAGA)FPHHYCLY[Bip]-NH2
modifications: disulfide 5-14
notes: Tested as the Gd(III)-DOTAGA chelate conjugate of the cyclic peptide; also called CMPD ID 3

Bridge positions count the residues as written; N and C are the ends. Square brackets hold non-standard residues; d marks the D form. Ends that are not written are not given here. GdDOTAGA = Gd(III)-DOTAGA chelate, amide-linked; Bip = N[C@@H](Cc1ccc(-c2ccccc2)cc1)C(=O)O

The target of the first test is T1, rat collagen (acid soluble, type I, rat tail, Millipore Inc, cat#08-115) (rat, UniProt P02454 152-1207; P02466 86-1125).
T1 construct: In the assay the collagen was gelled and dried as a fibril film in microtiter wells; also called rat collagen type I
T1 sequence (P02454 152-1207 limits assumed, chain 1 of 2): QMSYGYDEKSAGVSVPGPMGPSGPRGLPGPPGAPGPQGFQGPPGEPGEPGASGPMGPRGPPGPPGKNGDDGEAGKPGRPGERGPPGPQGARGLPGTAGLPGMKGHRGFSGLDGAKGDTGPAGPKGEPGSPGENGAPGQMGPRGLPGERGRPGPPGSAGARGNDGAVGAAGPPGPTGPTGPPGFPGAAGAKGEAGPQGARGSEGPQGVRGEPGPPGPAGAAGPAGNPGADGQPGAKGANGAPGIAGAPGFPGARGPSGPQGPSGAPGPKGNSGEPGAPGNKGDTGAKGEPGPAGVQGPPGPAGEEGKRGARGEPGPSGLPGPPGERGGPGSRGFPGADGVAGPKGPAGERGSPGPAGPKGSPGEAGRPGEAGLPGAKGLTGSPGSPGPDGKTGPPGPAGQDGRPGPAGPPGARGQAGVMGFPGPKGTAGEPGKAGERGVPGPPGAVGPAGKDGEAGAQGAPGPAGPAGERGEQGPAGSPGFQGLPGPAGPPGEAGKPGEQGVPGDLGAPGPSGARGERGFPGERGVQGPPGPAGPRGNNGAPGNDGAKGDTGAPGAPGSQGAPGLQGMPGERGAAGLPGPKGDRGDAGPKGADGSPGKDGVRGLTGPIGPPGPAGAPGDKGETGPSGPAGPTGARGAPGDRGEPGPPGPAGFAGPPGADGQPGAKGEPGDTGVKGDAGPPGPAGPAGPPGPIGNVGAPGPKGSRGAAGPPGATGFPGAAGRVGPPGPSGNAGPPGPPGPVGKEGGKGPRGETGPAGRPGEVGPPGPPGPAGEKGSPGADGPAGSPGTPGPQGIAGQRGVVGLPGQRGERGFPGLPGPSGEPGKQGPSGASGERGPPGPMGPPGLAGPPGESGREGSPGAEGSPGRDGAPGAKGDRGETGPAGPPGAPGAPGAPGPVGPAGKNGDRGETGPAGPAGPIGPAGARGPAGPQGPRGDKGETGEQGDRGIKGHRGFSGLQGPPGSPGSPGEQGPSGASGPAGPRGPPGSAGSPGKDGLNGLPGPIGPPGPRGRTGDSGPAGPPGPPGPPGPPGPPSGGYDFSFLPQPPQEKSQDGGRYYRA
T1 sequence (P02466 86-1125 limits assumed, chain 2 of 2): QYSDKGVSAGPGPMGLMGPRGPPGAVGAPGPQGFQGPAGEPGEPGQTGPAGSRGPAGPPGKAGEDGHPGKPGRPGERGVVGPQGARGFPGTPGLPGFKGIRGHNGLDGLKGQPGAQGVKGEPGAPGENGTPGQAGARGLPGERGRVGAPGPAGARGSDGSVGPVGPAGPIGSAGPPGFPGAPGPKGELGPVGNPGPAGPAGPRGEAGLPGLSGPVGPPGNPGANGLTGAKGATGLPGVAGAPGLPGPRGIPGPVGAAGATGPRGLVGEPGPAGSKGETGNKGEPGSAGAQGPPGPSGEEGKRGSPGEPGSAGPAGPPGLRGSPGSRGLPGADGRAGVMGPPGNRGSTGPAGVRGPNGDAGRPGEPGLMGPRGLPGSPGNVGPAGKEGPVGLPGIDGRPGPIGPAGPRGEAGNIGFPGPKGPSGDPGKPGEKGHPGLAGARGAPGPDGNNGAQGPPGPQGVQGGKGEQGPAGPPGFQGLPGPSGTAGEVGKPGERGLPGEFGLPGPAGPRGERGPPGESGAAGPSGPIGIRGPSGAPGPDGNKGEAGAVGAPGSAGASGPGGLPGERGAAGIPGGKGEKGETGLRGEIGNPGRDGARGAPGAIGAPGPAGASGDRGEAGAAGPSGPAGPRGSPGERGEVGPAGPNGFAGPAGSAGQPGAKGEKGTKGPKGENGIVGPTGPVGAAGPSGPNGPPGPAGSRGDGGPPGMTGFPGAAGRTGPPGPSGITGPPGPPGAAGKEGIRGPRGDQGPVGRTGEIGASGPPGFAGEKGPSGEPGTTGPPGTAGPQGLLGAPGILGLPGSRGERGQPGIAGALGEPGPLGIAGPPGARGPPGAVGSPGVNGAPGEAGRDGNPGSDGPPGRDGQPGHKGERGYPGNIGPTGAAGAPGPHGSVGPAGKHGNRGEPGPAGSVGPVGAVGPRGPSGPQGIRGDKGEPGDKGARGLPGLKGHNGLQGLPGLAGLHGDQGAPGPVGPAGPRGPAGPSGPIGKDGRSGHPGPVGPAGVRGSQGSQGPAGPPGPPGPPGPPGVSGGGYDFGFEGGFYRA
Description: dried collagen film in microtiter plate; unbound compound by ICP-MS (Gd); fit to 1 binding site. As to the method: (§1) Ice-cold 1×PBS pH 10.8 is added to the collagen solution for a final collagen concentration of 10 μM, pH 7.4. Collagen solutions are gelled and dried down in the wells of a 96 well microtiter plate (Corning Polystyrene Flat Bottom, cat#3641). 70 μl of 10 μM collagen is aliquoted into each well in every other lane in the plate (48 wells) and the plate is incubated at 37° C. for 18 hours to form a gel and evaporate to dryness. Ungelled collagen is removed by washing the collagen films with 200 μl 1×PBS pH 7.4 (four times, 15 min per wash). The thin collagen fibril film remains, coating the bottom of each well. After washing by PBS the plate is again dried at 37° C. for 2 hours and is stored at −20° C. The final well content of gelled collagen is measured by determination of hydroxyproline and is around 180 μg/ml.
(§2) a serial dilution of 0.2 μM-30 μM of the peptide chelate is prepared in PBS, pH 7.4 (˜300 μL of solution for each concentration). 90 μl of each concentration is also reserved in a HPLC glass vial as a sample to measure the total concentration. 140 μL of each dilution of peptide chelate is added to wells containing and non-containing collagen (control for nonspecific plastic binging). The plate is then incubated on a shaker table (300 rpm) for 2 hours at room temperature to allow the compound to bind. After 2 hours the supernatant from each well (with or without collagen) is transferred to an HPLC glass vial. The concentration of free, unbound compound in the sample supernatants and the concentration of compound in the reserved (total) sample are determined by ICP-MS (Agilent 7500, gadolinium concentration). The concentration of compound bound to collagen is determined as [bound]=[total]−[unbound].
(§3) The binding of compounds to human, rat and dog collagen (5 μM) was measured over the concentration range 0.2-5 μM of Comp ID Nos.: 1-4. The binding data was fit to a model of 1 binding site.
A word on the Kd: it is the concentration at which binding is half-saturated. Read a high Kd as lower affinity. Molecule B1 gave a Kd of 4.6 µM.
Regarding B2, the Kd turned out to be 20.6 µM.
For B3, the Kd was 21.1 µM. This Kd and that of the molecule before are within 1.5-fold of each other.

The target in another test is T2, human type I collagen (VitroCol solution, Advanced Biomatrix, cat#5007-A) (human, UniProt P02452 179-1192; P08123 91-1104, limits assumed).
T2 construct: In the assay the collagen was gelled and dried as a fibril film in microtiter wells; also called human collagen; Human Collagen Type I
T2 sequence (P02452 179-1192 limits assumed, chain 1 of 2): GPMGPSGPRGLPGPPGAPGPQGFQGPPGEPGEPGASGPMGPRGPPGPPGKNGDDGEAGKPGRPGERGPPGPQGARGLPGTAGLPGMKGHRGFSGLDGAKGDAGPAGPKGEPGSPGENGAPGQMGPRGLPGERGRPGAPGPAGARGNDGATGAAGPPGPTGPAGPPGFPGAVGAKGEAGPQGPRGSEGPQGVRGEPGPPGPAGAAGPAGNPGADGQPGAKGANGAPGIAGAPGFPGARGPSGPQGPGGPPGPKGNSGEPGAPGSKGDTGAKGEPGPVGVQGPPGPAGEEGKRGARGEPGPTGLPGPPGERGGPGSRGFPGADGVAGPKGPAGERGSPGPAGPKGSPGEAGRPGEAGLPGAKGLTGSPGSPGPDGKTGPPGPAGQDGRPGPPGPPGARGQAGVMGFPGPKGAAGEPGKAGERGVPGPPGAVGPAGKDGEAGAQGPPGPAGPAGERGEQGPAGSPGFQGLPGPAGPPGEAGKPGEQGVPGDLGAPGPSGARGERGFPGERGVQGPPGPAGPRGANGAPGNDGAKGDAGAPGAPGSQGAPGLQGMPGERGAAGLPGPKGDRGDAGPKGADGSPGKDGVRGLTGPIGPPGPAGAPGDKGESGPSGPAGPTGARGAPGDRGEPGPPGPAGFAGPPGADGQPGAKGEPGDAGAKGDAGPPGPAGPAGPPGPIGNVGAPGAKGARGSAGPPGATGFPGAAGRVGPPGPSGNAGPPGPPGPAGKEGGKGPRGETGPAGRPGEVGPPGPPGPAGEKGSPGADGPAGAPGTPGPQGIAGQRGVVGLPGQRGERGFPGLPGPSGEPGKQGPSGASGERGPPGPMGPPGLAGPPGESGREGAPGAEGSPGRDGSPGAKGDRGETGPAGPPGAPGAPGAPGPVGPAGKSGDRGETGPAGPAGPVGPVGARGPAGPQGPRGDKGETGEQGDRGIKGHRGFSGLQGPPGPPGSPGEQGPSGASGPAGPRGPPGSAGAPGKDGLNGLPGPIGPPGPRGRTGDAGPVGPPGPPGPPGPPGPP
T2 sequence (P08123 91-1104 limits assumed, chain 2 of 2): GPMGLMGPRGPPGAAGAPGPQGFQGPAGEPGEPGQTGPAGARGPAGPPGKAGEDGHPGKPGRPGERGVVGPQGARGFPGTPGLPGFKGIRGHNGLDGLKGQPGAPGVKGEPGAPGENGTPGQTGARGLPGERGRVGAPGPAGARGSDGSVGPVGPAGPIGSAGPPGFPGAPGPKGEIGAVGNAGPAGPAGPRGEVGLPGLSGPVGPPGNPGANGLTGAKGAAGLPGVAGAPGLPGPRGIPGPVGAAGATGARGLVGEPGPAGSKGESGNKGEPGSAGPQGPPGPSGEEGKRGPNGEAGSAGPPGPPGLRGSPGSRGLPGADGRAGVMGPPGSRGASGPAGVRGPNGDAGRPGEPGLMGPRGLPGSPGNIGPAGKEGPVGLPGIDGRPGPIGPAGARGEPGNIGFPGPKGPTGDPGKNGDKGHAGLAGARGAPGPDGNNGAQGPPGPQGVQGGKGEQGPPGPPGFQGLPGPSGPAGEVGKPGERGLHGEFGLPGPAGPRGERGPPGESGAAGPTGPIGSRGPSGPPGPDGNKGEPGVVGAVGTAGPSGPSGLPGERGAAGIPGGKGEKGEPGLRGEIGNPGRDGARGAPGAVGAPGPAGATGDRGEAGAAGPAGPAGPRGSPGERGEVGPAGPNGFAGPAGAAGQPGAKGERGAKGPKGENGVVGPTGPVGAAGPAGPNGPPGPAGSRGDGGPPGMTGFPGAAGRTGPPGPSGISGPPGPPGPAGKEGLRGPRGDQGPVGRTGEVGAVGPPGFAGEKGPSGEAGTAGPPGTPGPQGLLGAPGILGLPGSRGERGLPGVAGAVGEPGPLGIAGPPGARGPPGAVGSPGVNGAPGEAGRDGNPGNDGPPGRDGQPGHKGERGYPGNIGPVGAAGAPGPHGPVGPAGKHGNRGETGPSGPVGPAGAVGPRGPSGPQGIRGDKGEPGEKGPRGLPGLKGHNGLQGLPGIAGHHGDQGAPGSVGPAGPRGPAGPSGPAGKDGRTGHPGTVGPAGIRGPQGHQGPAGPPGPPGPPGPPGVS
The test is described as above. As to the method:
as §1, §2, §3
Turning to B4, the Kd stood at 29.8 µM.
As for B1, the Kd turned out to be 9.6 µM.
Molecule B2 gave a Kd of 4.9 µM. This Kd lies about 2-fold lower than the previous one.
Same read-out and setting: in the case of B3 it was 3.8 µM.

A further test has as its target T3, Canine collagen (Native canine Collagen Type I and III protein, YO protein AB, cat#739) (canine, UniProt Q9XSJ7 158-1214; O46392 80-1119).
T3 construct: The bought preparation is a mixture of native canine collagen types I and III, not one defined trimer; It was gelled and dried as a film in microtiter wells; also called dog collagen
The description is as above. As to the method: as §1, §2, §3
For B1, the affinity, expressed as Kd, was 2 µM. This counts as single-digit micromolar.
B2 gave a Kd of 4.9 µM.
In turn, B3 yielded a Kd of 4.4 µM.
